Measurements taken from US20230220034A1, “METHOD FOR IMPROVING SOLUBILITY OF PROTEIN AND PEPTIDE BY USING IMMUNOGLOGULIN FC FRAGMENT LINKAGE” (HANMI PHARM. CO., LTD., priority 2014, published 2023).
Read-outs that look alike come from different tables or passages of the source. Square brackets hold non-standard residues; d marks the D form. Ends that are not written are not given here. Aib = CC(C)(N)C(=O)O

Experiments:
[1] = Test of solubility of insulin and long-acting insulin conjugate (RP-HPLC against calibration standard curve); format: physicochemical; conditions: for Measurement value (quantitative value calculated by standard calibration curve): pH 6.0 acetic acid buffer, polysorbate, mannitol, sodium chloride, room temperature, supernatant
Description: A respective calibration standard curve of insulin and the long-acting insulin conjugate was first confirmed by Reverse Phase-High Performance Liquid Chromatography (RP-HPLC), as in FIG. 1.

[2] = pH 5.6

Substance	solubility ([1]; FIG. 2, composition of Table 1, pH 6.0)	difference between the theoretical value and the measurement value ([1]; dissolved in long-acting insulin conjugate formulation buffer, pH 6.0)	pellets after centrifugation ([1]; long-acting insulin conjugate formulation buffer, all cases, excluding 0.008 mg/mL)	point at which completely dissolved without impurities or pellet (minimum quantitative value) ([1]; serial dilution of test material from about 10 mg/mL, pH 6.0)	Measurement value (quantitative value calculated by standard calibration curve) ([1]; theoretical quantitative value 0.008 mg/mL)	Measurement value (quantitative value calculated by standard calibration curve) ([1]; theoretical quantitative value 0.04 mg/mL)	Measurement value (quantitative value calculated by standard calibration curve) ([1]; theoretical quantitative value 0.2 mg/mL)	Measurement value (quantitative value calculated by standard calibration curve) ([1]; theoretical quantitative value 1 mg/mL)	Measurement value (quantitative value calculated by standard calibration curve) ([1]; theoretical quantitative value 5 mg/mL)	Measurement value (quantitative value calculated by standard calibration curve) ([1]; theoretical quantitative value 10 mg/mL)	difference between the theoretical value and the measurement value [2]	solubility [2]	point at which completely dissolved without impurities or pellet (minimum quantitative value) ([2]; serial dilution of test material from about 5 mg/mL)
Insulin	628 µg/mL	up to 16 times	pellets were observed	0.008 mg/mL	0.000 mg/mL	0.000 mg/mL	0.005 mg/mL	0.047 mg/mL	0.253 mg/mL	0.628 mg/mL	–	–	–
Oxyntomodulin derivative: oxyntomodulin derivative having the amino acid sequence of SEQ ID NO: 27, cysteine residue at position 30 (H[Aib]QGTFTSDYSKYLDEKRAKEFVQWLMNTC)	–	–	–	–	–	–	–	–	–	–	up to 27 times	188 µg/mL	0.008 mg/mL
